Reference: the supplement of paper PMC9170038

Tested on: MS2 coat protein
Assay: apparent KD of MS2 coat protein; designed switch direction (-1 OFF switch, 1 ON switch): -1; higher = weaker reporter binding
How it was run: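 Designed RNA switches with common flanks were transcribed on Illumina chips by stalled E. coli RNA polymerase and titrated with SNAP-549-labelled MS2 coat protein, from 0.7 or 1.5 nM doubling to 3 µM, in Tris-HCl pH 7.5 buffer with KCl, MgCl2, BSA, DTT, tRNA and Tween-20. Steps lasted 0.8–1.5 h (lowest) to 10–20 min (highest). Titrations ran without input, with 200 uM small-molecule ligand, or with an oligonucleotide input. Normalised cluster fluorescence was curve-fitted, and apparent KD is the per-design median over clusters.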

[1] = Eterna round: R95, input ligand: FMN 200 uM
[2] = Eterna round: R95, input ligand: microRNA oligo, concentration not stated
[3] = Eterna round: R95, input ligand: none
[4] = input ligand: microRNA oligo, concentration not stated

Sequence | apparent KD of MS2 coat protein (input ligand: FMN 200 uM) [nM] | apparent KD of MS2 coat protein (input ligand: none) [nM] | apparent KD of MS2 coat protein [1] [nM] | apparent KD of MS2 coat protein [2] [nM] | apparent KD of MS2 coat protein [3] [nM] | apparent KD of MS2 coat protein [4] [nM]
CGAUAAUCCUAGGAUAUGCUAGACGAAAGUCUAGCAGAAGGAGGAACAUGAGGAUCACCCAUGUGUCCUAAUCG [Mat - Exclusion 6 - Eli Mod - D17] (Eterna round: R97, puzzle: Exclusion 6) | 30.9 | 15.3 | – | – | – | –
UAUUAGCAAGUAAGGUCCCACAUGAGGAUCACCCAUGUGCUCGUCUUAUAAGGUACUGUGACGAAAGUCACGGUACC [Sensor 3, v1 - 95] (puzzle: Sensor v3, turn-off variant 1) | – | – | 18.4 | 585 | 18.1 | –
AGGACAUGAGGAUCACCCAUGUAGUGAGGUGUAUCCGAAGACGAGGAUAUACAGAGGAAAUAUCUGUAGAAGGUGUUAUAAAUU [Atleusan] (Eterna round: R96, puzzle: Exclusion NG 3) | 726 | 766 | – | – | – | 229
AGCUAUGCCGAGGAUAUCGGCUGGAUAAGACACUGAGAAGGCGGGACAUGAGGAUCACCCAUGUGAACCUAUAU [Eternabot (L1) Solution 30] (Eterna round: R97, puzzle: Exclusion 6) | 27.3 | 30.2 | – | – | – | –
AGCAGACGAGGAUAUAAAUUUGAUAACAUGAGGAUCACCCAUGUGAUCGAUAGAUCAAAUUUAGAAGGUGUCUGCU [E5/7-B1] (Eterna round: R97, puzzle: Exclusion 5) | 512 | 490 | – | – | – | –
CUUUUGUGAGGAUAUUAGUAGUAAAUAAUUAAAAUUACUACUGAGAAGGCACAUGAGGAUCACCCAUGUUCCUC [salish99_ex4_r3_056] (Eterna round: R96, puzzle: Exclusion 4) | 489 | 37.4 | – | – | – | 33.2
UUAGUGUAAGGAUAUGCAAACCACGGAAAUAAAACGUGGAGGUAGAAGGUACAUGAGGAUCACCCAUGUUAAAC [Mod of Anonveat 25 - Jieux - Exclusion 4] (Eterna round: R97, puzzle: Exclusion 4) | 34 | 20.2 | – | – | – | –
UAUUAAACAAGCAGGUCCCACAUGAGGAUCACCCAUGUGCUCGUCUUAUAAGGUACUGUGAUGAAAGUUACGGUACC [Elimod 17 - Jieux - Sensor, turn-off variant 1] (Eterna round: R97, puzzle: Sensor, turn-off variant 1) | 36.4 | 46.2 | – | – | – | –
GUAUGAGGAGGAUAUACGUAUCCUUGACCCUGCUAGCGCGGACAUGAGGAUCACCCAUGUAGAAGGUUUCGACA [Eternabot (L1) Solution 46] (Eterna round: R97, puzzle: Exclusion 2) | 28.8 | 38.6 | – | – | – | –
AUCCUGUCAGGAUAUCUAGUUAAAUACAUGAGGAUCACCCAUGUCACUGGGCCGUCCUUAAGAGAAGGGACAGGCG [Edabe] (puzzle: Exclusion 5) | – | – | 169 | 34.5 | 39.7 | –
UUCACAUGGACAUGAGAUCACAUGAGGAUCACCCAUGUGAAUAACAAGCUUUUUGCUCGUCUUAUGUCCAAUAAUAU [Stov1/14-C3] (Eterna round: R97, puzzle: Sensor, turn-off variant 1) | 13.1 | 13.1 | – | – | – | –
UUAGUGUGAGGAUAUGGUAAAGAUAAGAUGAUGAAAGAACUCCAGAAGGCACAUGAGGAUCACCCAUGUAGAUG [JL-ex4-2.13 Jieux mod] (puzzle: Exclusion 4) | – | – | 67.4 | 35.4 | 30.6 | –
GUGGUACAUGAGGAUCACCCAUGUUAGGAUAUCGCGUGAGGUUUUACUUCCGCACGCGCGAGAAGGGACGUCUU (puzzle: Exclusion 1) | – | – | – | 28.9 | – | –
UAUAUAUAGUAAGGAUAUGUAUUAAUUUUUUAAACAGAAGGUACUGACAUGAGGAUCACCCAUGUUUUAGUGUGGGCAUGUAGA [JMF's solution 86] (Eterna round: R96, puzzle: Exclusion NG 1) | – | – | – | – | – | 65.7
